Measurements taken from the supplement of paper PMC3353916.
± gives the standard deviation of the averaged measurements.

System: Sindbis virus TE/5'2J-GFP
Assay: percent infected (GFP+ in RFP+ ISG-expressing cells); higher = more infection (less antiviral activity)
Method: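 Confirmatory testing of 87 ISGs. Triplicate wells of BHK/HA-Zeo (control) or BHK/NZAP-Zeo (ZAP) cells were transduced with lentiviruses co-expressing a human ISG plus TagRFP, then infected 48 h later with SINV TE/5'2J-GFP (moi 5). The % GFP+ cells among RFP+ cells was measured by flow cytometry at 8 h post infection. Fluc lentivirus served as control. Three independent experiments.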

[1] = experiment: confirmatory screen 1, BHK/HA-Zeo (control)
[2] = experiment: confirmatory screen 1, BHK/NZAP-Zeo (ZAP)
[3] = experiment: confirmatory screen 2, BHK/HA-Zeo (control)
[4] = experiment: confirmatory screen 2, BHK/NZAP-Zeo (ZAP)
[5] = experiment: confirmatory screen 3, BHK/HA-Zeo (control)
[6] = experiment: confirmatory screen 3, BHK/NZAP-Zeo (ZAP)
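Also: Interferon-defective BHK-21 derivatives, ZAP line overexpressing the rat ZAP N-terminal zinc finger domain fused to Zeocin resistance, GFP scored within live singlet TagRFP+ cells.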

Sequence | percent infected [1] [%] | percent infected [2] [%] | percent infected [3] [%] | percent infected [4] [%] | percent infected [5] [%] | percent infected [6] [%]
MERISAFFSSIWDTILTKHQEGIYNTICLGVLLGLPLLVIITLLFICCHCCWSPPGKRGQQPEKNKKKKKKKKKKDEEDLWISAQPKLLQMEKRPSLPV [KIAA0040] | 93.9 ± 2.6 | 62.7 ± 0.84 | 96.75 ± 0.12 | 95.133 ± 0.042 | 87.2 ± 1.7 | 87.8 ± 1.6
MEVTTRLTWNDENHLRKLLGNVSLSLLYKSSVHGGSIEDMVERCSRQGCTITMAYIDYNMIVAFMLGNYINLHESSTEPNDSLWFSLQKKNDTTEIETLLLNTAPKIIDEQLVCRLSKTDIFIICRDNKIYLDKMITRNLKLRFYGHRQYLECEVFRVEGIKDNLDDIKRIIKAREHRNRLLADIRDYRPYADLVSEIRILLVGPVGSGKSSFFNSVKSIFHGHVTGQAVVGSDITSITERYRIYSVKDGKNGKSLPFMLCDTMGLDGAEGAGLCMDDIPHILKGCMPDRYQFNSRKPITPEHSTFITSPSLKDRIHCVAYVLDINSIDNLYSKMLAKVKQVHKEVLNCGIAYVALLTKVDDCSEVLQDNFLNMSRSMTSQSRVMNVHKMLGIPISNILMVGNYASDLELDPMKDILILSALRQMLRAADDFLEDLPLEETGAIERALQPCI [IFI44L] | 94.86 ± 0.39 | 67.5 ± 2.4 | 96.87 ± 0.21 | 94.83 ± 0.34 | 83.6 ± 1.6 | 85.31 ± 0.85
MFAKGKGSAVPSDGQAREKLALYVYEYLLHVGAQKSAQTFLSEIRWEKNITLGEPPGFLHSWWCVFWDLYCAAPERRDTCEHSSEAKAFHDYSAAAAPSPVLGNIPPNDGMPGGPIPPGFFQGPPGSQPSPHAQPPPHNPSSMMGPHSQPFMSPRYAGGPRPPIRMGNQPPGGVPGTQPLLPNSMDPTRQQGHPNMGGSMQRMNPPRGMGPMGPGPQNYGSGMRPPPNSLGPAMPGINMGPGAGRPWPNPNSANSIPYSSSSPGTYVGPPGGGGPPGTPIMPSPADSTNSSDNIYTMINPVPPGGSRSNFPMGPGSDGPMGGMGGMEPHHMNGSLGSGDIDGLPKNSPNNISGISNPPGTPRDDGELGGNFLHSFQNDNYSPSMTMSV [SSBP3] | 63.1 ± 3.4 | 3.95 ± 1.2 | 94.42 ± 0.81 | 95.08 ± 0.28 | 83.27 ± 0.48 | 54.1 ± 14
MGAQLCFEANAKAPREALRFHAEAKGAQVRLDTRGCIAHRRTTFHDGIVFSQRPVRLGERVALRVLREESGWCGGLRVGFTRLDPACVSVPSLPPFLCPDLEEQSPTWAAVLPEGCALTGDLVRFWVDRRGCLFAKVNAGCRLLLREGVPVGAPLWAVMDVYGTTKAIELLDPTASRLPTPMPWDLSNKAVPEPKATPGEECAICFYHAANTRLVPCGHTYFCRYCAWRVFSDTAKCPVCRWQIEAVAPAQGPPALRVEEGS [LINCR] | 97.12 ± 0.12 | 85 ± 1.6 | 94.5 ± 0.3 | 94.39 ± 0.54 | 91.97 ± 0.65 | 93.27 ± 0.19
MGERTLHAAVPTPGYPESESIMMAPICLVENQEEQLTVNSKALEILDKISQPVVVVAIVGLYRTGKSYLMNRLAGKRNGFPLGSTVQSETKGIWMWCVPHLSKPNHTLVLLDTEGLGDVEKSNPKNDSWIFALAVLLSSSFVYNSVSTINHQALEQLHYVTELAELIRAKSCPRPDEAEDSSEFASFFPDFIWTVRDFTLELKLDGNPITEDEYLENALKLIPGKNPKIQNSNMPRECIRHFFRKRKCFVFDRPTNDKQYLNHMDEVPEENLERHFLMQSDNFCSYIFTHAKTKTLREGIIVTGKRLGTLVVTYVDAINSGAVPCLENAVTALAQLENPAAVQRAADHYSQQMAQQLRLPTDTLQELLDVHAACEREAIAVFMEHSFKDENHEFQKKLVDTIEKKKGDFVLQNEEASAKYCQAELKRLSEHLTESILRGIFSVPGGHNLYLEEKKQVEWDYKLVPRKGVKANEVLQNFLQSQVVVEESILQSDKALTAGEKAIAAERAMKEAAEKEQELLREKQKEQQQMMEAQERSFQEYMAQMEKKLEEERENLLREHERLLKHKLKVQEEMLKEEFQKKSEQLNKEINQLKEKIESTKNEQLRLLKILDMASNIMIVTLPGASKLLGVGTKYLGSRI [GBP4] | 95 ± 2.1 | 63 ± 6 | 95.8 ± 0.54 | 95.49 ± 0.44 | 94.22 ± 0.7 | 94.93 ± 0.31
MGILYSEPICQAAYQNDFGQVWRWVKEDSSYANVQDGFNGDTPLICACRRGHVRIVSFLLRRNANVNLKNQKERTCLHYAVKKKFTFIDYLLIILLMPVLLIGYFLMVSKTKQNEALVRMLLDAGVEVNATDCYGCTALHYACEMKNQSLIPLLLEARADPTIKNKHGESSLDIARRLKFSQIELMLRKAL [ANKRD22] | 96.94 ± 0.72 | 78.5 ± 1.2 | 96.41 ± 0.47 | 95.57 ± 0.16 | 93.15 ± 0.2 | 93.16 ± 0.36
MHLCGGNGLLTQTDPKEQQRQLKKQKNRAAAQRSRQKHTDKADALHQQHESLEKDNLALRKEIQSLQAELAWWSRTLHVHERLCPMDCASCSAPGLLGCWDQAEGLLGPGPQGQHGCREQLELFQTPGSCYPAQPLSPGPQPHDSPSLLQCPLPSLSLGPAVVAEPPVQLSPSPLLFASHTGSSLQGSSSKLSALQPSLTAQTAPPQPLELEHPTRGKLGSSPDNPSSALGLARLQSREHKPALSAATWQGLVVDPSPHPLLAFPLLSSAQVHF [BATF2] | 90.1 ± 2.7 | 63.14 ± 0.42 | 95.85 ± 0.33 | 94.92 ± 0.24 | 93.14 ± 0.36 | 91.04 ± 0.55
MHQSLTQQRSSDMSLPDSMGAFNRRKRNSIYVTVTLLIVSVLILTVGLAATTRTQNVTVGGYYPGVILGFGSFLGIIGSNLIENKRQMLVASIVFISFGVIAAFCCAIVDGVFAARHIDLKPLYANRCHYVPKTSQKEAEEVISSSTKNSPSTRVMRNLTQAAREVNCPHLSREFCTPRIRGNTCFCCDLYNCGNRVEITGGYYEYIDVSSCQDIIHLYHLLWSATILNIVGLFLGIITAAVLGGFKDMNPTLPALNCSVENTHPTVSYYAHPQVASYNTYYHSPPHLPPYSAYDFQHSGVFPSSPPSGLSDEPQSASPSPSYMWSSSAPPRYSPPYYPPFEKPPPYSP [FAM70A] | 97.01 ± 0.45 | 75.9 ± 2.9 | 96.07 ± 0.48 | 95.55 ± 0.12 | 94.9 ± 0.5 | 94.05 ± 0.37
MIAAQAKLVYQLNKYYTERCQARKAAIAKTIREVCKVVSDVLKEVEVQEPRFISSLSEIDARYEGLEVISPTEFEVVLYLNQMGVFNFVDDGSLPGCAVLKLSDGRKRSMSLWVEFITASGYLSARKIRSRFQTLVAQAVDKCSYRDVVKMIADTSEVKLRIRERYVVQITPAFKCTGIWPRSAAQWPMPHIPWPGPNRVAEVKAEGFNLLSKECYSLTGKQSSAESDAWVLQFGEAENRLLMGGCRNKCLSVLKTLRDRHLELPGQPLNNYHMKTLLLYECEKHPRETDWDESCLGDRLNGILLQLISCLQCRRCPHYFLPNLDLFQGKPHSALESAAKQTWRLAREILTNPKSLDKL [MAB21L2] | 77.4 ± 7.3 | 48.7 ± 1.9 | 93.37 ± 0.82 | 93.8 ± 0.28 | 85.5 ± 3.3 | 86.9 ± 0.91
MKEDCLPSSHVPISDSKSIQKSELLGLLKTYNCYHEGKSFQLRHREEEGTLIIEGLLNIAWGLRRPIRLQMQDDREQVHLPSTSWMPRRPSCPLKEPSPQNGNITAQGPSIQPVHKAESSTDSSGPLEEAEEAPQLMRTKSDASCMSQRRPKCRAPGEAQRIRRHRFSINGHFYNHKTSVFTPAYGSVTNVRVNSTMTTLQVLTLLLNKFRVEDGPSEFALYIVHESGERTKLKDCEYPLISRILHGPCEKIARIFLMEADLGVEVPHEVAQYIKFEMPVLDSFVEKLKEEEEREIIKLTMKFQALRLTMLQRLEQLVEAK [RASSF4] | 80.1 ± 2.3 | 56.3 ± 1.3 | 94.73 ± 0.66 | 94.93 ± 0.39 | 89.1 ± 0.9 | 89.9 ± 1.3
MKKSGVLFLLGIILLVLIGVQGTPVVRKGRCSCISTNQGTIHLQSLKDLKQFAPSPSCEKIEIIATLKNGVQTCLNPDSADVKELIKKWEKQVSQKKKQKNGKKHQKKKVLKVRKSQRSRQKKTT [CXCL9] | 61.9 ± 6.1 | 44.7 ± 2.9 | 88.7 ± 2.5 | 91.55 ± 0.18 | 83.1 ± 1.5 | 82 ± 1.1
MKLRSSHNASKTLNANNMETLIECQSEGDIKEHPLLASCESEDSICQLIEVKKRKKVLSWPFLMRRLSPASDFSGALETDLKASLFDQPLSIICGDSDTLPRPIQDILTILCLKGPSTEGIFRRAANEKARKELKEELNSGDAVDLERLPVHLLAVVFKDFLRSIPRKLLSSDLFEEWMGALEMQDEEDRIEALKQVADKLPRPNLLLLKHLVYVLHLISKNSEVNRMDSSNLAICIGPNMLTLENDQSLSFEAQKDLNNKVKTLVEFLIDNCFEIFGENIPVHSSITSDDSLEHTDSSDVSTLQNDSAYDSNDPDVESNSSSGISSPSRQPQVPMATAAGLDSAGPQDAREVSPEPIVSTVARLKSSLAQPDRRYSEPSMPSSQECLESRVTNQTLTKSEGDFPVPRVGSRLESEEAEDPFPEEVFPAVQGKTKRPVDLKIKNLAPGSVLPRALVLKAFSSSSLDASSDSSPVASPSSPKRNFFSRHQSFTTKTEKGKPSREIKKHSMSFTFAPHKKVLTKNLSAGSGKSQDFTRDHVPRGVRKESQLAGRIVQENGCETHNQTARGFCLRPHALSVDDVFQGADWERPGSPPSYEEAMQGPAARLVASESQTVGSMTVGSMRARMLEAHCLLPPLPPAHHVEDSRHRGSKEPLPGHGLSPLPERWKQSRTVHASGDSLGHVSGPGRPELLPLRTVSESVQRNKRDCLVRRCSQPVFEADQFQYAKESYI [TAGAP] | 91.3 ± 3 | 64.8 ± 2.3 | 86.1 ± 4.6 | 92.53 ± 0.75 | 85 ± 2 | 89.95 ± 0.44
MKTFTWTLGVLFFLLVDTGHCRGGQFKIKKINQRRYPRATDGKEEAKKCAYTFLVPEQRITGPICVNTKGQDASTIKDMITRMDLENLKDVLSRQKREIDVLQLVVDVDGNIVNEVKLLRKESRNMNSRVTQLYMQLLHEIIRKRDNSLELSQLENKILNVTTEMLKMATRYRELEVKYASLTDLVNNQSVMITLLEEQCLRIFSRQDTHVSPPLVQVVPQHIPNSQQYTPGLLGGNEIQRDPGYPRDLMPPPDLATSPTKSPFKIPPVTFINEGPFKDCQQAKEAGHSVSGIYMIKPENSNGPMQLWCENSLDPGGWTVIQKRTDGSVNFFRNWENYKKGFGNIDGEYWLGLENIYMLSNQDNYKLLIELEDWSDKKVYAEYSSFRLEPESEFYRLRLGTYQGNAGDSMMWHNGKQFTTLDRDKDMYAGNCAHFHKGGWWYNACAHSNLNGVWYRGGHYRSKHQDGIFWAEYRGGSYSLRAVQMMIKPID [ANGPTL1] | 94.8 ± 1.7 | 76.2 ± 1.6 | 95.66 ± 0.28 | 94.3 ± 2.2 | 94.73 ± 0.38 | 94.71 ± 0.28
